The results in this text go back to patent publication US20240026017A1 (Kyowa Kirin, published 2024).

T1: human CCR3 (human, UniProt P51677 1-355)
T1 construct: whole, on cells; also called hCCR3; CHO-S-hCCR3 (expressing cells)
T1 sequence (looked up): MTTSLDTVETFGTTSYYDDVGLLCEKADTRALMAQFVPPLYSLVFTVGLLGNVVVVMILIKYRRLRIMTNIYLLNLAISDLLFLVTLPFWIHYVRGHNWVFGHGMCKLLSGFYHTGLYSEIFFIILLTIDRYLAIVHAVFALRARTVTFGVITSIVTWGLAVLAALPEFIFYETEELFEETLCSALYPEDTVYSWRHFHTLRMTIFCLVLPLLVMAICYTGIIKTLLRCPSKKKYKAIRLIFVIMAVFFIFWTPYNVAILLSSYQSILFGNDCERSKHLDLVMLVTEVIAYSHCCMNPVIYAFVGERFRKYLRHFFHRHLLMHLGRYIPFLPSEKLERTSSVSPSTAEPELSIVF

T2: human CC chemokine receptor 1 (human CCR1) (human, UniProt P32246 1-355)
T2 construct: endogenous on THP-1 cells in the migration assays; also called hCCR1; CHO-S-hCCR1 (expressing cells)
T2 sequence: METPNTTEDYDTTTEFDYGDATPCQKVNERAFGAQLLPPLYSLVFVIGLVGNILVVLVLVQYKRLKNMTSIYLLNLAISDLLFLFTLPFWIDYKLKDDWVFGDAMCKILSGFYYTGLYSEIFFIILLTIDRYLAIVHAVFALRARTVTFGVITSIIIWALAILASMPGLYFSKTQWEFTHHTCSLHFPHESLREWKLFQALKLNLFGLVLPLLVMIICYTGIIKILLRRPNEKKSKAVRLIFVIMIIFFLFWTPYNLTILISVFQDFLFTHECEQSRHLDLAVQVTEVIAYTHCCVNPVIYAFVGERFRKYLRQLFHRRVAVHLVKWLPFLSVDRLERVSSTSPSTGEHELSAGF

B1: KM5954 antibody (antibody, mouse IgG2a, V domains shown)
VH: QVQLKESGPGLVAPSQSLSITCTVSGFSLPRYTITWVRQPPGKGLEWLGLIRTGGGTIYNSALKSRLSISKDNSKSQVFLKMNSLQSGDTARYYCARNGAYYSKSGSYWYFDVWGTGTTVTVSS
VL: QIVLTQSPAIMSVSLGEEITLTCSASSSVSYMHWYQQKSGTSPKLLIYSTSNLASGVPSRFSGSGSGTFYSLTISSVEAEDAADYYCHQWSSHPCTFGGGTKLEIK
notes: mouse IgG2a from hybridoma
B2: KM5908 antibody (antibody, mouse IgG2a, V domains shown)
VH: QVQLKQSGPGLVQPSQSLSITCTVSGFSLNNYGVHWVRQPPGKGLEWLGVIWSAGTTVYNAAFISRLSISKDDSKSQVFFKMNSLQAGDTAIYYCAKDGSRYYTAMDYWGQGTSVTVSS
VL: DVVMTQTPRSLPVSLGDQASISCRSRQSLIHSNGITFLHWYLQKAGQSPKLLIYKVSNRFSGVPDRFSGSGSGTDFTLRISRVEAEDLGVYFCSQGTHVPPTFGGGTKLEIK
notes: mouse IgG2a from hybridoma
B3: KM5907 antibody (antibody, mouse IgG1, V domains shown)
VH: EVQVVESGGNLVKPGGSLKLSCSASGFTFSRYGMSWVRQTPDKRLEWVASISATFTYTYYTDNVKGRFTISRDNAKNTLYLQMSSLRSEDTGMYYCTRQDNYAWFDSWGQGTLVTVSA
VL: DVLMTQTPLSLPVSLGDQVSISCRSSQSIVHSNGNTFLEWYLKKPGQSPKLLIYKVSSRFSGVPDRFSGSGSGTDFTLKIRRVEADDLGVYYCFQGSHIPWTFGGGTNLEIK
notes: mouse IgG1 from hybridoma
B4: chKM5908′ mut19 (antibody, V domains shown)
VH: B2 VH with I51T, V58A, I64A
VL: DVVMTQTPLSLPVSLGDQASIFCRSSQSLVHRNGITFAHWYLQKPGQSPKLLIYKVSNRFSGVPDRFSGSGSGTDFTLKISRVAPDDLGVYFCSQGTHVPPTFGGGTKLEIK
B5: chKM5908′ mut25 (antibody, V domains shown)
VH: B2 VH with I51T
VL: B4 VL with A38F, R59K
B6: chKM5908′ mut07 (antibody, V domains shown)
VH: B2 VH with F63A
VL: B4 VL with A38F
B7: chKM5908′ mut06 (antibody, V domains shown)
VH: B2 VH with V58A
VL: B4 VL with A38F
B8: chKM5908′ mut27 (antibody, V domains shown)
VH: B2 VH with I51T, V58A, I64A
VL: B4 VL with A38F, R59K
B9: chKM5908′ mut30 (antibody, V domains shown)
VH: B2 VH with F63A
VL: B4 VL with V56I
B10: chKM5908′ mut08 (antibody, V domains shown)
VH: B2 VH with I64A
VL: B4 VL with A38F
B11: chKM5908′ mut04 (antibody, V domains shown)
VH: B2 VH
VL: B4 VL with V56I
B12: chKM5908′ mut11 (antibody, V domains shown)
VH: B2 VH with I51T, V58A, I64A
VL: B4 VL with A38F
B13: chKM5908′ mut20 (antibody, V domains shown)
VH: B2 VH with I51T, I64A, Y102A, T104A
VL: B4 VL
B14: chKM5908′ mut12 (antibody, V domains shown)
VH: B2 VH with I51T, I64A, Y102A, T104A
VL: B4 VL with A38F
B15: chKM5908′ mut13 (antibody, V domains shown)
VH: B2 VH with I51T, I64A, T104A
VL: B4 VL with A38F
B16: chKM5908′ mut14 (antibody, V domains shown)
VH: B2 VH with I51T, I64A
VL: B4 VL with A38F
B17: chKM5908′ mut31 (antibody, V domains shown)
VH: B2 VH with I51T, V58A, I64A
VL: B4 VL with V56I
B18: chKM5908′ mut09 (antibody, V domains shown)
VH: B2 VH with Y102A
VL: B4 VL with A38F
B19: chKM5908′ mut32 (antibody, V domains shown)
VH: B2 VH with I51T, I64A, Y102A, T104A
VL: B4 VL with V56I
B20: chKM5908′ mut26 (antibody, V domains shown)
VH: B2 VH with F63A
VL: B4 VL with A38F, R59K
B21: chKM5908′ mut15 (antibody, V domains shown)
VH: B2 VH with I51T, Y102A, T104A
VL: B4 VL with A38F
B22: chKM5908′ mut17 (antibody, V domains shown)
VH: B2 VH with I51T
VL: B4 VL
B23: chKM5908′ mut23 (antibody, V domains shown)
VH: B2 VH with I51T, V58A, I64A
VL: B4 VL with A38F, V56I
B24: chKM5908′ mut21 (antibody, V domains shown)
VH: B2 VH with I51T
VL: B4 VL with A38F, V56I
B25: chKM5908′ mut18 (antibody, V domains shown)
VH: B2 VH with F63A
VL: B4 VL
B26: chKM5908′ mut29 (antibody, V domains shown)
VH: B2 VH with I51T
VL: B4 VL with V56I
B27: chKM5908′ mut24 (antibody, V domains shown)
VH: B2 VH with I51T, I64A, Y102A, T104A
VL: B4 VL with A38F, V56I
B28: chKM5908′ mut28 (antibody, V domains shown)
VH: B2 VH with I51T, I64A, Y102A, T104A
VL: B4 VL with A38F, R59K
B29: chKM5908′ mut22 (antibody, V domains shown)
VH: B2 VH with F63A
VL: B4 VL with A38F, V56I
notes: also called mAb5-06; mAb 5-06
B30: chKM5908′ mut10 (antibody, V domains shown)
VH: B2 VH with T104A
VL: B4 VL with A38F

Residue numbers refer to the chain shown, from its start.

The target of one assay is T1, human CCR3. Put plainly: flow cytometry on CHO-S-hCCR3 cells, hybridoma culture supernatant diluted 10-fold. The source says: As test antibodies, each hybridoma culture supernatant diluted 10-fold, an existing mouse anti-human CCR1 monoclonal antibody 53504 antibody (R & D Technologies), and a mouse anti-human CCR3 monoclonal antibody 444-11 antibody (MBL) were used.
Regarding the measurement results, the fluorescence intensity when a certain cell was stained with a certain test antibody (each hybridoma culture supernatant, 53504 antibody or 444-11 antibody) and a secondary antibody was divided by the fluorescence intensity when the cell was stained only with the secondary antibody. […] In Table 2, the results are indicated as A and B, respectively.
(In general: In flow cytometry, cells or beads pass a laser one at a time.)
In the case of B1, the “fluorescence intensity ratio (test antibody + secondary / secondary only)” value is below 10 fold. Turning to B2, the “fluorescence intensity ratio (test antibody + secondary / secondary only)” value is below 10 fold. On to B3, for which the “fluorescence intensity ratio (test antibody + secondary / secondary only)” value was below 10 fold.

A further assay concerns the target T2, human CC chemokine receptor 1 (human …). Put plainly: flow cytometry on CHO-S-hCCR1 cells; bound = fluorescence 10 times or more that of isotype control chDNP1. Here is the method:
The antigen affinity of the chKM5908′ antibody, which is a VL-substituted chimeric antibody, was measured by flow cytometry using the CHO-S-hCCR1 cells produced in Example 2. The cells were collected by centrifugation, the supernatant was removed, and the cells were suspended in PBS (Staining Medium, hereinafter, abbreviated as SM) containing 2% fetal bovine serum (FBS), 0.05% NaN₃, and 1 mM EDTA. Next, the cells were seeded in a 96-well plate so that the number of cells is 1×10⁵ per well, and the chKM5908′ antibody was added at each final concentration of 10,000, 2,000, 400, 80, 16, and 3.2 ng/mL, and the reaction was performed at 4° C. for 60 minutes. After washing the cells with SM, Goat F (ab′)₂ Anti-Human IgG PE (γ chain specific) (Southern Biotech) diluted 500-fold with SM was added and reacted at 4° C. for 60 minutes. After washing the cells with SM, the cells were resuspended in 50 μL of SM, and the fluorescence intensity was measured by the flow cytometry (FACS Canto II, BD Biosciences).
1996 June; 33 (9):759-68, hereinafter, referred to as chDNP1)] were determined to be bound to the human CCR1.
As to B4, the binding result is listed as “binds”. Take B5: the binding result was “binds”. As for B6, the binding result is on record as “binds”. In the case of B7, the binding result is reported as “binds”. With B8, the binding result was “binds”. On to B9, for which the binding result is reported as “binds”. For B10, the binding result is “binds”. The same measure, in the same setting: under B11 stands “binds”. For B12, the binding result was “binds”. On the same count and under the same terms, under B13 stands “binds”; under B14, “binds”; under B15, “binds”. For the molecule B16, the binding result is “binds”. The same measure, in the same setting: under B17 stands “binds”; under B18, “binds”; under B19, “binds”. The same measure, in the same setting: under B20 stands “binds”; under B21, “binds”; under B22, “binds”. The same measure, in the same setting: under B23 stands “binds”; under B24, “binds”. For the molecule B25, the binding result was “binds”. In the case of B26, the binding result is listed as “binds”. For B27, the binding result is listed as “binds”. In the case of B28, the binding result is on record as “binds”.

As for B29, the binding result is reported as “binds”. As to B30, the binding result was “binds”.
